Data on 1 molecule can be found in PMC5502268, “DNA Methylation Influences Chlorogenic Acid Biosynthesis in Lonicera japonica by Mediating LjbZIP8 to Regulate Phenylalanine Ammonia-Lyase 2 Expression”.

Data set [1] concerns the target T1, LjbZIP10 (Lonicera japonica, UniProt A0A4Y1JSG2 1-361).
T1 sequence: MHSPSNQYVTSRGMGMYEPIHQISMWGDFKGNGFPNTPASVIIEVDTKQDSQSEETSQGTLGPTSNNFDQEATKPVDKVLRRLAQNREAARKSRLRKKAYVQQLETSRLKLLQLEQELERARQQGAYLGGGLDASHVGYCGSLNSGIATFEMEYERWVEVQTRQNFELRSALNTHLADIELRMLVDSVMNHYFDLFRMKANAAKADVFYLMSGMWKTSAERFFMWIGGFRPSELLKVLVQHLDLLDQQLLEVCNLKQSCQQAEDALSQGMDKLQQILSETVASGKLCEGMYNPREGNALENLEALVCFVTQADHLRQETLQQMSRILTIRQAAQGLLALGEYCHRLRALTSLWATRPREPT
The experiment in a line: EMSA; 40 fmol biotin probe, 15 fmol protein, 0 or 4 pmol competitor, room temperature 20 min, Pierce LightShift kit 20148; binding buffer, salt and pH not stated. Particulars: protein: recombinant; tags: GST (pGEX-4T-1); chain copies: 2; blunt. A general note: In EMSA bound probe runs differently from free probe, usually more slowly.

The target in data set [2] is T2, LjbZIP8 (Lonicera japonica, UniProt A0A4Y1JSE6 1-144).
T2 sequence: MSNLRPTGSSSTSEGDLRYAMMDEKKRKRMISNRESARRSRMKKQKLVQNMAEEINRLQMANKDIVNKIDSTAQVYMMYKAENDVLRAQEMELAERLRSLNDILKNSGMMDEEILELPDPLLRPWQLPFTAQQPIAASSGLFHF
The experiment in a line: EMSA; inhibited by unlabelled probe (200x in legend; 4 pmol vs 40 fmol in Methods); 40 fmol biotin probe, 15 fmol protein, 0 or 4 pmol competitor, room temperature 20 min, Pierce LightShift kit 20148; binding buffer, salt and pH not stated. Particulars: protein: recombinant; tags: GST (pGEX-4T-1); chain copies: 2; blunt.

B1: LjPAL2 G-box probe (dsDNA)
DNA 1: CTCTCCTGTCCACGTGTCATCAAC
DNA 2: GTTGATGACACGTGGACAGGAGAG
For B1, the binding result is “no binding” in data set [1] and “binds” in data set [2].
